Tests used:
[1] = substrate: O=[N+]([O-])c1ccc(O[C@@H]2O[C@H](CO)[C@@H](O)[C@H](O)[C@H]2O)cc1; test: Steady-state apparent kinetic constants with substrates; format: biochemical, Hordeum vulgare; conditions: substance is the substrate, pH 5.25, 30.0 °C
[2] = substrate: OC[C@H]1O[C@@H](O[C@H]2[C@H](O)[C@@H](CO)OC(O)[C@@H]2O)[C@H](O)[C@@H](O)[C@@H]1O; test: as above; format: biochemical, Hordeum vulgare; conditions: substance is the substrate, pH 5.25, 30.0 °C

B1: HvExoI W286F mutant (Hordeum vulgare subsp. vulgare; W311F) (protein)
chain: DYVLYKDATKPVEDRVADLLGRMTLAEKIGQMTQIERLVATPDVLRDNFIGSLLSGGGSVPRKGATAKEWQDMVDGFQKACMSTRLGIPMIYGIDAVHGQNNVYGATIFPHNVGLGATRDPYLVKRIGEATALEVRATGIQYAFAPCIAVCRDPRWGRCYESYSEDRRIVQSMTELIPGLQGDVPKDFTSGMPFVAGKNKVAACAKHFVGDGGTVDGINENNTIINREGLMNIHMPAYKNAMDKGVSTVMISYSSWNGVKMHANQDLVTGYLKDTLKFKGFVISDFEGIDRITTPAGSDYSYSVKASILAGLDMIMVPNNYQQFISILTGHVNGGVIPMSRIDDAVTRILRVKFTMGLFENPYADPAMAEQLGKQEHRDLAREAARKSLVLLKNGKTSTDAPLLPLPKKAPKILVAGSHADNLGYQCGGWTIEWQGDTGRTTVGTTILEAVKAAVDPSTVVVFAENPDAEFVKSGGFSYAIVAVGEHPYTETKGDNLNLTIPEPGLSTVQAVCGGVRCATVLISGRPVVVQPLLAASDALVAAWLPGSEGQGVTDALFGDFGFTGRLPRTWFKSVDQLPMNVGDAHYDPLFRLGYGLTTNATKKY
B1 showed a Km ([1]; other: W286F) of 2400 ± 300 µM, a kcat ([1]; other: W286F) of 1.9 ± 0.1 s⁻¹ and a kcat/Km ([1]; other: W286F) of 800 ± 10 M⁻¹ s⁻¹. It also gave a Km ([2]; other: W286F) of 400 ± 40 µM, a kcat ([2]; other: W286F) of 2.6 ± 0.2 s⁻¹ and a kcat/Km ([2]; other: W286F) of 5800 ± 400 M⁻¹ s⁻¹.

B2: HvExoI W434F mutant (Hordeum vulgare subsp. vulgare; W459F) (protein)
chain: DYVLYKDATKPVEDRVADLLGRMTLAEKIGQMTQIERLVATPDVLRDNFIGSLLSGGGSVPRKGATAKEWQDMVDGFQKACMSTRLGIPMIYGIDAVHGQNNVYGATIFPHNVGLGATRDPYLVKRIGEATALEVRATGIQYAFAPCIAVCRDPRWGRCYESYSEDRRIVQSMTELIPGLQGDVPKDFTSGMPFVAGKNKVAACAKHFVGDGGTVDGINENNTIINREGLMNIHMPAYKNAMDKGVSTVMISYSSWNGVKMHANQDLVTGYLKDTLKFKGFVISDWEGIDRITTPAGSDYSYSVKASILAGLDMIMVPNNYQQFISILTGHVNGGVIPMSRIDDAVTRILRVKFTMGLFENPYADPAMAEQLGKQEHRDLAREAARKSLVLLKNGKTSTDAPLLPLPKKAPKILVAGSHADNLGYQCGGWTIEFQGDTGRTTVGTTILEAVKAAVDPSTVVVFAENPDAEFVKSGGFSYAIVAVGEHPYTETKGDNLNLTIPEPGLSTVQAVCGGVRCATVLISGRPVVVQPLLAASDALVAAWLPGSEGQGVTDALFGDFGFTGRLPRTWFKSVDQLPMNVGDAHYDPLFRLGYGLTTNATKKY
Work on B2 yielded a Km ([1]; other: W434F) of 600 ± 40 µM, a kcat ([1]; other: W434F) of 6.6 ± 0.7 s⁻¹ and a kcat/Km ([1]; other: W434F) of 12700 ± 2100 M⁻¹ s⁻¹. It also gave a Km ([2]; other: W434F) of 1700 ± 200 µM, a kcat ([2]; other: W434F) of 17.1 ± 1.6 s⁻¹ and a kcat/Km ([2]; other: W434F) of 9900 ± 1200 M⁻¹ s⁻¹.

B3: HvExoI W434H mutant (Hordeum vulgare subsp. vulgare; W459H) (protein)
chain: DYVLYKDATKPVEDRVADLLGRMTLAEKIGQMTQIERLVATPDVLRDNFIGSLLSGGGSVPRKGATAKEWQDMVDGFQKACMSTRLGIPMIYGIDAVHGQNNVYGATIFPHNVGLGATRDPYLVKRIGEATALEVRATGIQYAFAPCIAVCRDPRWGRCYESYSEDRRIVQSMTELIPGLQGDVPKDFTSGMPFVAGKNKVAACAKHFVGDGGTVDGINENNTIINREGLMNIHMPAYKNAMDKGVSTVMISYSSWNGVKMHANQDLVTGYLKDTLKFKGFVISDWEGIDRITTPAGSDYSYSVKASILAGLDMIMVPNNYQQFISILTGHVNGGVIPMSRIDDAVTRILRVKFTMGLFENPYADPAMAEQLGKQEHRDLAREAARKSLVLLKNGKTSTDAPLLPLPKKAPKILVAGSHADNLGYQCGGWTIEHQGDTGRTTVGTTILEAVKAAVDPSTVVVFAENPDAEFVKSGGFSYAIVAVGEHPYTETKGDNLNLTIPEPGLSTVQAVCGGVRCATVLISGRPVVVQPLLAASDALVAAWLPGSEGQGVTDALFGDFGFTGRLPRTWFKSVDQLPMNVGDAHYDPLFRLGYGLTTNATKKY
Work on B3 yielded a Km ([1]; other: W434H) of 2200 ± 200 µM, a kcat ([1]; other: W434H) of 7.7 ± 0.6 s⁻¹ and a kcat/Km ([1]; other: W434H) of 3500 ± 400 M⁻¹ s⁻¹. The Km ([2]; other: W434H) was 1700 ± 400 µM, the kcat ([2]; other: W434H) was 51.8 ± 2.0 s⁻¹ and the kcat/Km ([2]; other: W434H) was 31300 ± 7300 M⁻¹ s⁻¹.

B4: WT HvExoI (Hordeum vulgare subsp. vulgare) (protein)
chain: DYVLYKDATKPVEDRVADLLGRMTLAEKIGQMTQIERLVATPDVLRDNFIGSLLSGGGSVPRKGATAKEWQDMVDGFQKACMSTRLGIPMIYGIDAVHGQNNVYGATIFPHNVGLGATRDPYLVKRIGEATALEVRATGIQYAFAPCIAVCRDPRWGRCYESYSEDRRIVQSMTELIPGLQGDVPKDFTSGMPFVAGKNKVAACAKHFVGDGGTVDGINENNTIINREGLMNIHMPAYKNAMDKGVSTVMISYSSWNGVKMHANQDLVTGYLKDTLKFKGFVISDWEGIDRITTPAGSDYSYSVKASILAGLDMIMVPNNYQQFISILTGHVNGGVIPMSRIDDAVTRILRVKFTMGLFENPYADPAMAEQLGKQEHRDLAREAARKSLVLLKNGKTSTDAPLLPLPKKAPKILVAGSHADNLGYQCGGWTIEWQGDTGRTTVGTTILEAVKAAVDPSTVVVFAENPDAEFVKSGGFSYAIVAVGEHPYTETKGDNLNLTIPEPGLSTVQAVCGGVRCATVLISGRPVVVQPLLAASDALVAAWLPGSEGQGVTDALFGDFGFTGRLPRTWFKSVDQLPMNVGDAHYDPLFRLGYGLTTNATKKY
Work on B4 yielded a Km ([1]; other: WT) of 2000 ± 150 µM, a kcat ([1]; other: WT) of 27.7 ± 2.5 s⁻¹ and a kcat/Km ([1]; other: WT) of 13900 ± 600 M⁻¹ s⁻¹.

B5: HvExoI W286Y mutant (Hordeum vulgare subsp. vulgare; W311Y) (protein)
chain: DYVLYKDATKPVEDRVADLLGRMTLAEKIGQMTQIERLVATPDVLRDNFIGSLLSGGGSVPRKGATAKEWQDMVDGFQKACMSTRLGIPMIYGIDAVHGQNNVYGATIFPHNVGLGATRDPYLVKRIGEATALEVRATGIQYAFAPCIAVCRDPRWGRCYESYSEDRRIVQSMTELIPGLQGDVPKDFTSGMPFVAGKNKVAACAKHFVGDGGTVDGINENNTIINREGLMNIHMPAYKNAMDKGVSTVMISYSSWNGVKMHANQDLVTGYLKDTLKFKGFVISDYEGIDRITTPAGSDYSYSVKASILAGLDMIMVPNNYQQFISILTGHVNGGVIPMSRIDDAVTRILRVKFTMGLFENPYADPAMAEQLGKQEHRDLAREAARKSLVLLKNGKTSTDAPLLPLPKKAPKILVAGSHADNLGYQCGGWTIEWQGDTGRTTVGTTILEAVKAAVDPSTVVVFAENPDAEFVKSGGFSYAIVAVGEHPYTETKGDNLNLTIPEPGLSTVQAVCGGVRCATVLISGRPVVVQPLLAASDALVAAWLPGSEGQGVTDALFGDFGFTGRLPRTWFKSVDQLPMNVGDAHYDPLFRLGYGLTTNATKKY
For B5, the Km ([1]; other: W286Y) was 2000 ± 100 µM, the kcat ([1]; other: W286Y) was 28.8 ± 2.9 s⁻¹ and the kcat/Km ([1]; other: W286Y) was 14600 ± 1500 M⁻¹ s⁻¹. For the same protein, the Km ([2]; other: W286Y) was 400 ± 40 µM, the kcat ([2]; other: W286Y) was 20.7 ± 1.7 s⁻¹ and the kcat/Km ([2]; other: W286Y) was 52600 ± 1500 M⁻¹ s⁻¹.

B6: HvExoI W434A mutant (Hordeum vulgare subsp. vulgare; W459A) (protein)
chain: DYVLYKDATKPVEDRVADLLGRMTLAEKIGQMTQIERLVATPDVLRDNFIGSLLSGGGSVPRKGATAKEWQDMVDGFQKACMSTRLGIPMIYGIDAVHGQNNVYGATIFPHNVGLGATRDPYLVKRIGEATALEVRATGIQYAFAPCIAVCRDPRWGRCYESYSEDRRIVQSMTELIPGLQGDVPKDFTSGMPFVAGKNKVAACAKHFVGDGGTVDGINENNTIINREGLMNIHMPAYKNAMDKGVSTVMISYSSWNGVKMHANQDLVTGYLKDTLKFKGFVISDWEGIDRITTPAGSDYSYSVKASILAGLDMIMVPNNYQQFISILTGHVNGGVIPMSRIDDAVTRILRVKFTMGLFENPYADPAMAEQLGKQEHRDLAREAARKSLVLLKNGKTSTDAPLLPLPKKAPKILVAGSHADNLGYQCGGWTIEAQGDTGRTTVGTTILEAVKAAVDPSTVVVFAENPDAEFVKSGGFSYAIVAVGEHPYTETKGDNLNLTIPEPGLSTVQAVCGGVRCATVLISGRPVVVQPLLAASDALVAAWLPGSEGQGVTDALFGDFGFTGRLPRTWFKSVDQLPMNVGDAHYDPLFRLGYGLTTNATKKY
Work on B6 yielded a Km ([1]; other: W434A) of 500 ± 100 µM, a kcat ([1]; other: W434A) of 9.5 ± 0.7 s⁻¹ and a kcat/Km ([1]; other: W434A) of 17600 ± 1800 M⁻¹ s⁻¹. For the same protein, the Km ([2]; other: W434A) was 2100 ± 200 µM, the kcat ([2]; other: W434A) was 2.6 ± 0.2 s⁻¹ and the kcat/Km ([2]; other: W434A) was 1300 ± 100 M⁻¹ s⁻¹.
